Data on one substance can be found in article PMC5557964.

For the assay, the target named is citrullinated fibronectin N-terminal 30 kDa fragment (treated with PAD2 or PAD4). Kind of assay: ELISA; FN N-terminal 30 kDa fragment coated o/n on 96-well DNA-BIND plates (3 µg/cm^3, +4 °C), blocked with BSA, citrullinated on the plate by PAD2 or PAD4 (2.4 U/ml, o/n, +37 °C) or left as control; integrin αVβ3 5 µg/ml for 1 h at room temperature in Delfia assay buffer; detected with anti-αV antibody L230 and Eu-labelled anti-mouse antibody, time-resolved fluorescence; BSA wells as background. On the technique in general: ELISA stands for enzyme-linked immunosorbent assay.

“recombinant integrin αVβ3 ectodomain (from UniProt P06756 31-992; P05106 27-718) (receptor)” gave a reduction of binding against the control FN fragment greater than 50%.
